Consider one molecule from PMC7755189, “Phosphorylation of seryl-tRNA synthetase by ATM/ATR is essential for hypoxia-induced angiogenesis”.

In the data set the target is SerRS WT (Homo sapiens, UniProt P49591 1-514). The data set can be described thus: EMSA; EMSA: 20 mM Tris-HCl pH 8.0, 60 mM KCl, 5 mM MgCl2, 0.1 mg/mL BSA, 10 ng/uL poly(dG-dC), 1 mM DTT, 30 min, room temperature; 0.08 pmol labeled DNA; 5% native PAGE. The note with it: protein: recombinant; tags: C-terminal His6; chain copies: 2; label: 5'-32P; annealed oligonucleotides.
SerRS WT, sequence (P49591 whole entry): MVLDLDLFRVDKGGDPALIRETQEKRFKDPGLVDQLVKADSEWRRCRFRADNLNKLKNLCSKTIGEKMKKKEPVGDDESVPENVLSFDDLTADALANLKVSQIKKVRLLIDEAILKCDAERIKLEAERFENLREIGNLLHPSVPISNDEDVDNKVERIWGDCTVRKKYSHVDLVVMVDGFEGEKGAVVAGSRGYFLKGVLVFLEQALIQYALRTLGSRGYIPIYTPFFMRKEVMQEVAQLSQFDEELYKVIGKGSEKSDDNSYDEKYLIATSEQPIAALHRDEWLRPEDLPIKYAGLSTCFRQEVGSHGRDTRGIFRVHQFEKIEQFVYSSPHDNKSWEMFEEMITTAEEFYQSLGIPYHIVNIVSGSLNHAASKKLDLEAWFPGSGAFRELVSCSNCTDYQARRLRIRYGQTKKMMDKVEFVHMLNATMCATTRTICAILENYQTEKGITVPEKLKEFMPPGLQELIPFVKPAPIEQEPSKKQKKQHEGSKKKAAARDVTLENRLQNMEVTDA

B1: VEGFA promoter SerRS binding site 27 bp (dsDNA)
DNA 1: GGCGGGGCGGAGCCATGCGCCCCCCCC
DNA 2: GGGGGGGGCGCATGGCTCCGCCCCGCC
For B1, the binding result is reported as “binds”.
